Measurements reported in article PMC10725492 (2023).
No end group written: not given here. *: point of attachment. Palmitoyl = CCCCCCCCCCCCCCCC(=O)*

Molecular target: recombinant APP N-terminal (18-612) fragment (UniProt P05067-4 18-612)
Test: SPR

Chain of recombinant APP N-terminal (18-612) fragment (P05067 other isoform, or with tags, fused parts or gaps): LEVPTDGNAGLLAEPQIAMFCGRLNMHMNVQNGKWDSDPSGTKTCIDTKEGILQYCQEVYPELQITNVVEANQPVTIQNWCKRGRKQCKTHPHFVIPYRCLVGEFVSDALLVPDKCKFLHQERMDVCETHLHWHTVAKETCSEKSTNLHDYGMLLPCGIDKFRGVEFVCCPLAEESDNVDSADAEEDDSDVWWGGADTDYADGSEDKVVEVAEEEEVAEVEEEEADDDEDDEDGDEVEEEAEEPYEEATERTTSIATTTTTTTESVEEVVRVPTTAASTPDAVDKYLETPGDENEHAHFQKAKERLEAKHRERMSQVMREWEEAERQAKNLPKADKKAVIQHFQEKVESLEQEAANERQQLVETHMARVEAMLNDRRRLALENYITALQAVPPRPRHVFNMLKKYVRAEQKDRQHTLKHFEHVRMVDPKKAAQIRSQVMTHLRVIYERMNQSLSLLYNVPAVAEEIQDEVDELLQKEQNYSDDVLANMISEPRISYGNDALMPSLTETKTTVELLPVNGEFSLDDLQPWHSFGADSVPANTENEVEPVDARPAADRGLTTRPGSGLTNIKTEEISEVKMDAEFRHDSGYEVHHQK

Work on KKKKKKLKVRLASHLRK(Palmitoyl)ELRKRLLRDA [AY51 peptide] yielded a koff of 0.000356 s⁻¹.
